Assay [1] concerns the target T1, human CD71 extracellular domain (human, UniProt P02786 89-760).
T1 construct: also called hCD71; human CD71-ECD
The assay can be described thus: primary ELISA, signal ratio to HSA. Background: ELISA stands for enzyme-linked immunosorbent assay.

For assay [2], the target named is T2, apical domain of cynomolgus CD71 (cynomolgus, UniProt A0A2K5X958 189-383).
T2 construct: domain: apical domain; also called Cyno apical domain
The assay can be described thus: primary ELISA, signal ratio to HSA.

Assay [3] addresses T1, human CD71 extracellular domain. The assay can be described thus: primary ELISA. Further: test concentration or dose not given here.
The target in assay [4] is T2, apical domain of cynomolgus CD71. The assay can be described thus: primary ELISA. Further: test concentration or dose not given here.

Data on 13 molecules can be found in patent US20260151494A1 (ARO BIOTHERAPEUTICS, published 2026).

Numbering of substitutions follows the chain as printed.

T2 sequence (A0A2K5X958 entry or part of it): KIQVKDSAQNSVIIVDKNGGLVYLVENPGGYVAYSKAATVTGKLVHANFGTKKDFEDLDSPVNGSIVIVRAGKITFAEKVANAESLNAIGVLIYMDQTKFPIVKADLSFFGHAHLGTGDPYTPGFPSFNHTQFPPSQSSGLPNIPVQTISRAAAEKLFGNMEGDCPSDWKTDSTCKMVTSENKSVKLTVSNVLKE
T1 sequence (P02786 89-760): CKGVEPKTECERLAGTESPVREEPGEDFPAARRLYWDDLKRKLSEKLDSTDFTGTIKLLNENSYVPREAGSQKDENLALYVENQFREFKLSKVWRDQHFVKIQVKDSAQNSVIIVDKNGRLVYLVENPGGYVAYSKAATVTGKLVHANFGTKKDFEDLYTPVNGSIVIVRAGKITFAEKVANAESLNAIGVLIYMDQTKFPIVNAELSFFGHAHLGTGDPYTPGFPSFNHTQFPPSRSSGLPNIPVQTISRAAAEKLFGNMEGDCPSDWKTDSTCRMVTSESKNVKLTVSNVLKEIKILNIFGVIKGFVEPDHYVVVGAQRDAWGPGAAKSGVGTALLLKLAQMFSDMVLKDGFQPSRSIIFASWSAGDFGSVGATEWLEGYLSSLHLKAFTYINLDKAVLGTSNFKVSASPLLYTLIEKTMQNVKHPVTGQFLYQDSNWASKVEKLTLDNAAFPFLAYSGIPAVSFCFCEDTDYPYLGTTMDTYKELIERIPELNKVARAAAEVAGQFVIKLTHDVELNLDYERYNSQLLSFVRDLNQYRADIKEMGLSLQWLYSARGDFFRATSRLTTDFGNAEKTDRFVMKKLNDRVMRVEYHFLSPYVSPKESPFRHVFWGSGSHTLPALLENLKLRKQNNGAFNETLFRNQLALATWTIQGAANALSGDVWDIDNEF

B1: CD71-binding FN3 domain of SEQ ID NO: 186 (designed binder)
chain: MSLPAPKNLVVSRVTEDSARLSWTAPDAAFDSFEIGYFENPYLGEAIVLTVPGSERSYDLTGLKPGTEYWVQIGGVKGGNWSAPLSAIFTT
Turning to B1, in assay [1], the “hCD71:HSA” value turned out to be 117. In addition, the “Cyno apical domain:HSA” value in assay [2] came to 153. Besides, the RLU stood at 3.63e+06 RLU in assay [3] and 4.75e+06 RLU in assay [4].

B2: CD71-binding FN3 domain of SEQ ID NO: 200 (designed binder)
chain: B1 chain with P41L, G79S
On to B2, for which the “hCD71:HSA” value in assay [1] amounted to 127. In addition, the “Cyno apical domain:HSA” value in assay [2] is 172. Also, the RLU in assay [3] worked out at 3.49e+06 RLU; in assay [4], 4.72e+06 RLU.

B3: CD71-binding FN3 domain of SEQ ID NO: 195 (designed binder)
chain: B1 chain with V10I, P41L, G79S
For B3, the “hCD71:HSA” value in assay [1] worked out at 106. In assay [2], the “Cyno apical domain:HSA” value was found to be 155. For the same molecule, the results for the RLU in assay [3] and in assay [4] were 2.88e+06 RLU and 4.2e+06 RLU, respectively.

B4: CD71-binding FN3 domain of SEQ ID NO: 189 (designed binder)
chain: B1 chain with N40H, P41T, L43Y
With B4, the “hCD71:HSA” value in assay [1] was determined as 1380. The “Cyno apical domain:HSA” value in assay [2] came to 1950. In addition, the figures for the RLU in assay [3] and in assay [4] were 3.45e+06 RLU and 4.87e+06 RLU, respectively.

B5: CD71-binding FN3 domain of SEQ ID NO: 191 (designed binder)
chain: B1 chain with P41L, T61A
Regarding B5, the “hCD71:HSA” value in assay [1] was found to be 92. For the same molecule, in assay [2], the “Cyno apical domain:HSA” value turned out to be 109. Moreover, the RLU is 4.2e+06 RLU in assay [3] and 4.99e+06 RLU in assay [4].

B6: CD71-binding FN3 domain of SEQ ID NO: 190 (designed binder)
chain: B1 chain with V11I, P41L, F89S
With B6, the “hCD71:HSA” value in assay [1] turned out to be 48. For the same molecule, the “Cyno apical domain:HSA” value in assay [2] came out at 68. In addition, the RLU amounted to 3.66e+06 RLU in assay [3] and 5.2e+06 RLU in assay [4].

B7: CD71-binding FN3 domain of SEQ ID NO: 193 (designed binder)
chain: B1 chain with P41L, A83E
As to B7, the “hCD71:HSA” value in assay [1] is 68. Further, in assay [2], the “Cyno apical domain:HSA” value was 116. Also, the figures for the RLU in assay [3] and in assay [4] were 2.33e+06 RLU and 3.95e+06 RLU, respectively.

B8: CD71-binding FN3 domain of SEQ ID NO: 188 (designed binder)
chain: B1 chain with F38W, P41A, L43K, W70V, Q72F, N80H, W81G, A83Q
As for B8, the “hCD71:HSA” value in assay [1] is 33. Besides, the “Cyno apical domain:HSA” value in assay [2] is 100. The RLU in assay [3] is 1.11e+06 RLU; in assay [4], 3.37e+06 RLU.

B9: CD71-binding FN3 domain of SEQ ID NO: 187 (designed binder)
chain: B1 chain with F38W, P41A, L43K, W70R, Q72W, N80V, A83R
B9: the “hCD71:HSA” value in assay [1] turned out to be 67. For the same molecule, in assay [2], the “Cyno apical domain:HSA” value was 93. The results for the RLU in assay [3] and in assay [4] were 3.06e+06 RLU and 4.22e+06 RLU, respectively.

B10: CD71-binding FN3 domain of SEQ ID NO: 199 (designed binder)
chain: B1 chain with P41L, S54Y
Regarding B10, the “hCD71:HSA” value in assay [1] is 170. Also, the “Cyno apical domain:HSA” value in assay [2] was 187. Moreover, the RLU in assay [3] amounted to 4.45e+06 RLU; in assay [4] it was 4.9e+06 RLU.

B11: CD71-binding FN3 domain of SEQ ID NO: 192 (designed binder)
chain: B1 chain with P41L, N80W, W81G, A83N
For B11, in assay [1], the “hCD71:HSA” value amounted to 61. Also, in assay [2], the “Cyno apical domain:HSA” value came out at 90. Besides, the RLU came out at 2.67e+06 RLU in assay [3] and 3.91e+06 RLU in assay [4].

B12: CD71-binding FN3 domain of SEQ ID NO: 201 (designed binder)
chain: MSLPAPKNLVVSRVTEDSARLSWTAPDAAFDSFEIAYFEGTFHGEAIVLFVPGSERSYDLTGLKPGTEYAVWIGGVKGGDYSRPLSAAFTT
Turning to B12, the “hCD71:HSA” value in assay [1] was 40. In assay [2], the “Cyno apical domain:HSA” value was 76. For the same molecule, the RLU was determined as 1.59e+06 RLU in assay [3] and 3.01e+06 RLU in assay [4].

B13: CD71-binding FN3 domain of SEQ ID NO: 194 (designed binder)
chain: B1 chain with P41L, W70P, Q72W, N80T, A83V, A87T
As for B13, in assay [1], the “hCD71:HSA” value came to 52. Also, the “Cyno apical domain:HSA” value in assay [2] worked out at 77. Moreover, the results for the RLU in assay [3] and in assay [4] were 2.56e+06 RLU and 3.78e+06 RLU, respectively.
